According to patent publication US20230365675A1 (published 2023):

Legend:
Experiment in all cases: FACS, mutant CD33-GFP on 293FT cells
[1] = biological target: T1, Mutant CD33-GFP M3 (N99A) on 293FT cells (UniProt P20138 18-364)
T1 construct: whole, on cells; not shown: GFP fused to CD33

[2] = biological target: T2, Mutant CD33-GFP M1 (W22A) on 293FT cells (UniProt P20138 18-364)
T2 construct: whole, on cells; not shown: GFP fused to CD33

[3] = biological target: T3, Mutant CD33-GFP M5 (AEAD), quadruple mutant, on 293FT cells (UniProt P20138 18-364)
T3 construct: whole, on cells; substitutions left empty; not shown: GFP fused to CD33

[4] = biological target: T4, Mutant CD33-GFP M4 (R122D) on 293FT cells (UniProt P20138 18-364)
T4 construct: whole, on cells; not shown: GFP fused to CD33

[5] = biological target: T5, Mutant CD33-GFP M2 (H45E) on 293FT cells (UniProt P20138 18-364)
T5 construct: whole, on cells; not shown: GFP fused to CD33

[6] = biological target: T6, Mutant CD33-GFP JS25 (V25M) on 293FT cells (UniProt P20138 18-364)
T6 construct: whole, on cells; not shown: GFP fused to CD33

[7] = biological target: T7, Mutant CD33-GFP JS23 (L23N) on 293FT cells (UniProt P20138 18-364)
T7 construct: whole, on cells; not shown: GFP fused to CD33

[8] = biological target: T8, Mutant CD33-GFP JS24 (Q24E) on 293FT cells (UniProt P20138 18-364)
T8 construct: whole, on cells; not shown: GFP fused to CD33

[9] = biological target: T9, Mutant CD33-GFP JS28 (S28L) on 293FT cells (UniProt P20138 18-364)
T9 construct: whole, on cells; not shown: GFP fused to CD33

[10] = biological target: T10, Mutant CD33-GFP M14 (E170R) on 293FT cells (UniProt P20138 18-364)
T10 construct: whole, on cells; not shown: GFP fused to CD33

[11] = biological target: T11, Mutant CD33-GFP M15 (Q171A) on 293FT cells (UniProt P20138 18-364)
T11 construct: whole, on cells; not shown: GFP fused to CD33

[12] = biological target: T12, Mutant CD33-GFP M11 (L78T) on 293FT cells (UniProt P20138 18-364)
T12 construct: whole, on cells; not shown: GFP fused to CD33

[13] = biological target: T13, Mutant CD33-GFP M12 (G88S) on 293FT cells (UniProt P20138 18-364)
T13 construct: whole, on cells; not shown: GFP fused to CD33

[14] = biological target: T14, Mutant CD33-GFP M13 (R91E) on 293FT cells (UniProt P20138 18-364)
T14 construct: whole, on cells; not shown: GFP fused to CD33

[15] = biological target: T15, Mutant CD33-GFP M9 (Y49, 50A) on 293FT cells (UniProt P20138 18-364)
T15 construct: whole, on cells; Read as the double mutant Y49A + Y50A; not shown: GFP fused to CD33

[16] = biological target: T16, Mutant CD33-GFP M7 (R98D) on 293FT cells (UniProt P20138 18-364)
T16 construct: whole, on cells; not shown: GFP fused to CD33

[17] = biological target: T17, Mutant CD33-GFP M8 (K52A) on 293FT cells (UniProt P20138 18-364)
T17 construct: whole, on cells; not shown: GFP fused to CD33

[18] = biological target: T18, Mutant CD33-GFP M10 (Y127A) on 293FT cells (UniProt P20138 18-364)
T18 construct: whole, on cells; not shown: GFP fused to CD33

[19] = biological target: T19, Mutant CD33-GFP M6 (F43N) on 293FT cells (UniProt P20138 18-364)
T19 construct: whole, on cells; not shown: GFP fused to CD33

[20] = biological target: Mutant CD33-GFP M19 (348ATAI) on 293FT cells (UniProt P20138)
[21] = biological target: Mutant CD33-GFP M18 (353AAL) on 293FT cells (UniProt P20138)
[22] = biological target: Mutant CD33-GFP M16 (4889AII) on 293FT cells (UniProt P20138)

T14 sequence (P20138 18-364 R91E): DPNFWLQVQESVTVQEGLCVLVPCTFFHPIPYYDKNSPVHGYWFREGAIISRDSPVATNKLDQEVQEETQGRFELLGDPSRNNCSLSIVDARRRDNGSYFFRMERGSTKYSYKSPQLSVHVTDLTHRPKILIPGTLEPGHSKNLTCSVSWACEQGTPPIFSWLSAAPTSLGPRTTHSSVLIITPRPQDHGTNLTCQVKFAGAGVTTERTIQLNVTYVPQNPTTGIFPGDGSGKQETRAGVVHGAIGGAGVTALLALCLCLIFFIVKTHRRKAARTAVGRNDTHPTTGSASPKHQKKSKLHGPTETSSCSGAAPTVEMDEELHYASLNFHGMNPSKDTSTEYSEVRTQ
T3 sequence (P20138 other isoform, or with tags, fused parts or gaps mutant): as the sequence (P20138 18-364 R91E) above, with W5A, H28E, E74R, N82A, R105D counted along it
T5 sequence (P20138 18-364 H45E): as the sequence (P20138 18-364 R91E) above, with H28E, E74R counted along it
T19 sequence (P20138 18-364 F43N): as the sequence (P20138 18-364 R91E) above, with F26N, E74R counted along it
T17 sequence (P20138 18-364 K52A): as the sequence (P20138 18-364 R91E) above, with K35A, E74R counted along it
T2 sequence (P20138 18-364 W22A): as the sequence (P20138 18-364 R91E) above, with W5A, E74R counted along it
T7 sequence (P20138 18-364 L23N): as the sequence (P20138 18-364 R91E) above, with L6N, E74R counted along it
T8 sequence (P20138 18-364 Q24E): as the sequence (P20138 18-364 R91E) above, with Q7E, E74R counted along it
T15 sequence (P20138 other isoform, or with tags, fused parts or gaps mutant): as the sequence (P20138 18-364 R91E) above, with Y32A, Y33A, E74R counted along it
T10 sequence (P20138 18-364 E170R): as the sequence (P20138 18-364 R91E) above, with E74R, E153R counted along it
T9 sequence (P20138 18-364 S28L): as the sequence (P20138 18-364 R91E) above, with S11L, E74R counted along it
T18 sequence (P20138 18-364 Y127A): as the sequence (P20138 18-364 R91E) above, with E74R, Y110A counted along it
T1 sequence (P20138 18-364 N99A): as the sequence (P20138 18-364 R91E) above, with E74R, N82A counted along it
T13 sequence (P20138 18-364 G88S): as the sequence (P20138 18-364 R91E) above, with G71S, E74R counted along it
T11 sequence (P20138 18-364 Q171A): as the sequence (P20138 18-364 R91E) above, with E74R, Q154A counted along it
T4 sequence (P20138 18-364 R122D): as the sequence (P20138 18-364 R91E) above, with E74R, R105D counted along it
T16 sequence (P20138 18-364 R98D): as the sequence (P20138 18-364 R91E) above, with E74R, R81D counted along it
T12 sequence (P20138 18-364 L78T): as the sequence (P20138 18-364 R91E) above, with L61T, E74R counted along it
T6 sequence (P20138 18-364 V25M): as the sequence (P20138 18-364 R91E) above, with V8M, E74R counted along it

B1: hu195 (antibody, V domains shown)
VH: QVQLVQSGAEVKKPGSSVKVSCKASGYTFTDYNMHWVRQAPGQGLEWIGYIYPYNGGTGYNCIKFKSKATITADESTNTAYMELSSLRSEDTAVYYCARGRPAMDYWGQGTLVTVSS
VL: DIQMTQSPSSLSASVGDRVTITCRASESVDNYGISFMNWFQQKPGKAPKLLIYAASNQGSGVPSRFSGSGSGTDFTLTISSLQPDDFATYYCQQSKEVPWTFGQGTKVEIK
FACS binding data [1]: 99.5
FACS binding data [2]: 99.3
FACS binding data [3]: 0.26
FACS binding data [4]: 99.6
FACS binding data [5]: 99.6
FACS binding data [6]: 99.8
FACS binding data [7]: 99.4
FACS binding data [8]: 72.5
FACS binding data [9]: 99.9
FACS binding data [10]: 98.2
FACS binding data [11]: 97.6
FACS binding data [12]: 86.8
FACS binding data [13]: 98.3
FACS binding data [14]: 98.1
FACS binding data [15]: 94.4
FACS binding data [16]: 98.4
FACS binding data [17]: 99.5
FACS binding data [18]: 92.5
FACS binding data [19]: 99.4
FACS binding data [20]: 99.7
FACS binding data [21]: 99.4
FACS binding data [22]: 97.2
